Results published in FireProtDB (doi:10.1021/bi000849s).

B1: Lysozyme C, P61626 (parent)
chain: MKALIVLGLVLLSVTVQGKVFERCELARTLKRLGMDGYRGISLANWMCLAKWESGYNTRATNYNAGDRSTDYGIFQINSRYWCNDGKTPGAVNACHLSCSALLQDNIADAVACAKRVVRDPQGIRAWVAWRNRCQNRDVRQYVQGCGV

Variants of: B1
Conditions: Homo sapiens, Thermal, DSC, reversible: yes, structure 1LZ1, whole UniProt chain shown; for ddG of mutation (higher = less stable) / unfolding free energy: 65 °C
[1] = pH 2.2, glycine hydrochloride 0.05 M
[2] = pH 2.3, glycine hydrochloride 0.05 M, KCl 0.2 M
[3] = pH 4.5, sodium acetate 0.02 M, KCl 0.2 M

Variant	Tm [1]	change of melting temperature, mutant - wild type (higher = more stable) [1]	Tm [2]	change of melting temperature, mutant - wild type (higher = more stable) [2]	ddG of mutation (higher = less stable) (pH 4, sodium acetate 0.02 M)	unfolding free energy (pH 4, sodium acetate 0.02 M)	ddG of mutation (higher = less stable) [3]	unfolding free energy [3]	Tm [3]	change of melting temperature, mutant - wild type (higher = more stable) [3]	Tm (pH 4, sodium acetate 0.02 M)	change of melting temperature, mutant - wild type (higher = more stable) (pH 4, sodium acetate 0.02 M)
MKALIVLGLVLLSVTVQGKVFERCELARTLKRLGMDGYRGISLANWMCLAKWESGYNTRATNYNAGDRSTDYGIFQINSRYWCNDGKTPGAVNACHLSCSALLQDNIADAVACAKRVVRNPQGIRAWVAWRNRCQNRDVRQYVQGCGV	58.1 °C	0.6 °C	56.7 °C	0.5 °C	0.67 kcal/mol	4.76 kcal/mol	-0.07 kcal/mol	4.13 kcal/mol	77.9 °C	0.2 °C	–	–
MKALIVLGLVLLSVTVQGKVFERCELARTLKRLGMNGYRGISLANWMCLAKWESGYNTRATNYNAGDRSTDYGIFQINSRYWCNDGKTPGAVNACHLSCSALLQDNIADAVACAKRVVRDPQGIRAWVAWRNRCQNRDVRQYVQGCGV	56 °C	-1.5 °C	–	–	–	–	–	–	–	–	75.5 °C	-4.6 °C
MKALIVLGLVLLSVTVQGKVFERCELARTLKRLGMDGYRGISLANWMCLAKWESGYNTRATNYNAGDRSTDYGIFQINSRYWCNDGKTPGAVNACHLSCSALLQDNIADAVACAKRVVRDPQGIRAWVAWRNRCQNRNVRQYVQGCGV	57.8 °C	0.3 °C	56.9 °C	0.7 °C	0.67 kcal/mol	4.76 kcal/mol	-0.05 kcal/mol	4.13 kcal/mol	77.8 °C	0.1 °C	78.3 °C	-1.8 °C
MKALIVLGLVLLSVTVQGKVFERCELARTLKRLGMDGYRGISLANWMCLAKWESGYNTRATNYNAGNRSTDYGIFQINSRYWCNDGKTPGAVNACHLSCSALLQDNIADAVACAKRVVRDPQGIRAWVAWRNRCQNRDVRQYVQGCGV	57.5 °C	0 °C	–	–	1 kcal/mol	4.42 kcal/mol	–	–	–	–	77.4 °C	-2.7 °C
MKALIVLGLVLLSVTVQGKVFERCQLARTLKRLGMDGYRGISLANWMCLAKWESGYNTRATNYNAGDRSTDYGIFQINSRYWCNDGKTPGAVNACHLSCSALLQDNIADAVACAKRVVRDPQGIRAWVAWRNRCQNRDVRQYVQGCGV	57.8 °C	0.3 °C	54.6 °C	-1.6 °C	1.43 kcal/mol	3.99 kcal/mol	1.29 kcal/mol	2.77 kcal/mol	75.5 °C	-2.2 °C	76.2 °C	-3.9 °C
MKALIVLGLVLLSVTVQGKVFERCELARTLKRLGMDGYRGISLANWMCLAKWESGYNTRATNYNAGDRSTDYGIFQINSRYWCNNGKTPGAVNACHLSCSALLQDNIADAVACAKRVVRDPQGIRAWVAWRNRCQNRDVRQYVQGCGV	56.8 °C	-0.7 °C	55.2 °C	-1 °C	2.25 kcal/mol	3.18 kcal/mol	1.7 kcal/mol	2.37 kcal/mol	72.5 °C	-5.2 °C	74 °C	-6.1 °C
